Data reported in the supplement of paper PMC11865577.

How the values were obtained:
Assay in all cases: pull-down binding Z-score (relative to library population); higher = stronger binding
TO-N3 (biotin conjugate) = details: RNA library: Library-2
In short: (§1)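 Streptavidin beads bearing 100 pmol of a biotin-conjugated small molecule were incubated for 60 min at 25 °C with 1 μg of heat-folded, Cy5- or Cy3-end-labelled RNA library in phosphate/NaCl/KCl buffer. Hot SDS eluted the RNA that stayed bound after three washes, and this RNA was hybridised for 20 h at 55.5 °C to a DNA barcode microarray. Binding was expressed as a Z-score against the library mean and standard deviation, after subtraction of a beads-only signal and trimmed averaging of barcoded replicate probes.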

[1] = test system: G-clamp-N3 (biotin conjugate); details: RNA library: Library-1 (pre-miRNA loops + repeats)
In short: as §1

[2] = test system: TO-3-N3-2 (biotin conjugate); details: RNA library: Library-2
In short: as §1

[3] = test system: TO-3-N3 (biotin conjugate); details: RNA library: Library-2
In short: as §1

[4] = test system: TO-N3-2 (biotin conjugate); details: RNA library: Library-2
In short: as §1

Sequence	pull-down binding Z-score (TO-N3 (biotin conjugate))	pull-down binding Z-score [1]	pull-down binding Z-score [2]	pull-down binding Z-score [3]	pull-down binding Z-score [4]
UGGAGGUGAUGGGGGCAGGGGAUGGGUCUCACCCUCCC [hsa-mir-5088]	3.11	0.537	2.93	3.33	2.59
UGGAGUCAGUAUUGGUCUGGCCA [hsa-mir-4255]	-0.319	0.114	0.104	-0.417	0.502
UGGAGUUUUUUUUUCCUCCUG [hsa-mir-4329]	0.219	-0.689	0.465	0.315	0.0619
UGGAUCACGCCGACAACACUGGUCU [hsa-mir-4635]	0.823	-0.474	0.163	0.534	0.76
UGGAUUUGAAAUGGUCCCACUCCUGACGAUCCU [hsa-mir-6748]	-0.0778	-0.524	-0.155	-0.358	0.335
UGGCAAAGACAUAGAUUGUUUAGCUACCCCUUUGCCA [hsa-mir-3119-2]	-0.809	0.167	-0.495	-0.516	-0.58
UGGCAAAGGGGUAGCUAAACAAUCUAUGUCUUUGCCA [hsa-mir-3119-1]	-0.525	1.24	0.00332	-0.367	-0.555
UGGCAAUUCAGUAAAAAUGCUCA [hsa-mir-6715b]	-0.281	-0.751	-0.14	-0.296	0.143
UGGCACAGAUCCAAUACCUUCUGUCCCC [hsa-mir-6810]	-0.118	-0.424	-0.361	0.0686	0.171
UGGCCAUUUCCUACCA [hsa-mir-617]	-0.908	-1.33	-0.393	-0.72	-0.383
UGGCCUGGCAGUGCGUCGGAAGAACAGGGCGGGUGGGGCC [hsa-mir-4792]	3.93	2.84	3.11	4	3.57
UGGCGACACUCGCGCCAGCUCCCGGGACGGCUGGGCUCGGGCUGGUCGCCGA [hsa-mir-7845]	0.341	3.14	-0.167	0.0309	1.38
UGGCGGCGGCGAGGACACCGCCGCU [hsa-mir-4469]	1.4	0.412	0.747	1.53	0.629
UGGCUGCUUGGGUCAAGUCAGCAGCCA [hsa-mir-449b]	-0.272	1.35	-0.474	-0.201	-0.648
UGGCUGUAGGGCAGCAGUCA [hsa-mir-8079]	1.16	0.959	0.456	1.29	0.479
UGGCUUCUGCCUCUUUCUUUGUGGAAGCCA [hsa-mir-4269]	-0.118	1.04	-0.369	0.255	-1.13
UGGCUUGCACCGUGACUCCCUCUCACCAAGCAAGUGUC [hsa-mir-4440]	0.0846	-0.837	0.0231	-0.387	0.607
UGGGAGGUAAGAGCUCUUCACCCUUCA [hsa-mir-197]	-0.119	-0.817	-0.132	-0.46	0.638
UGGGAGUGAUCCCAACAGCUGAGCUCCCU [hsa-mir-7106]	0.756	0.114	-0.0877	0.772	0.529

Sequence	pull-down binding Z-score (TO-N3 (biotin conjugate))	pull-down binding Z-score [1]	pull-down binding Z-score [2]	pull-down binding Z-score [3]	pull-down binding Z-score [4]
UGGGCAGUUCUUCUGCUGG [hsa-mir-1587]	0.149	0.403	0.0756	0.21	0.377
UGGGCCAAG [hsa-mir-3620]	0.825	-0.636	0.193	0.746	0.487
UGGGCUCCCCUAGACUAGGACUCCA [hsa-mir-1825]	-0.37	0.254	-0.507	-0.367	0.508
UGGGUAGAAAGUAUUAUUCUAUUCA [hsa-mir-664b]	-0.28	-0.0123	-0.0975	0.0201	-0.83
UGGGUAGGAAUAUCCUGGAUCCCCU [hsa-mir-3189]	0.102	-0.575	0.312	-0.0266	0.501
UGGGUCAAGGAGCCCA [hsa-mir-4530]	-0.3	0.476	-0.211	-0.163	-0.3
UGGGUGGAUCCUCUAUUUCCUUACGUGGGCCACUGG [hsa-mir-432]	0.729	0.632	-0.013	0.45	0.845
UGGGUUAAGCCGAGCUGG [hsa-mir-4507]	0.872	1.25	0.297	0.478	1.05
UGGGUUGAACUGUGUGGACAAGCUCA [hsa-mir-181b-1]	0.366	-0.166	-0.042	-0.111	0.631
UGGGUUGUGUCAGUGUCAGACCUC [hsa-mir-146a]	0.187	-0.421	-0.00346	-0.496	0.838
UGGGUUUGAGUCUGAAUCAACUCA [hsa-mir-181b-2]	-0.805	-0.649	-0.254	-0.728	-0.572
UGGUAUCCUGACCG [hsa-mir-1973]	0.408	-0.747	-0.269	0.627	0.287
UGGUCAGAUAUCCCAU [hsa-mir-8060]	-0.262	-1.4	-0.195	-0.323	-0.0919
UGGUCAGGCGGCU [hsa-mir-3917]	0.0412	0.0721	-0.061	-0.142	0.442
UGGUGCAAUAAUUGG [hsa-mir-1302-7]	0.4	1.95	0.492	0.418	0.245
UGGUGGAGAUGGAGAGCCCUGAGCCUCCA [hsa-mir-6777]	0.727	0.173	-0.0154	0.164	1.17
UGGUGGGAGAGGAGCCCCACUGUGGAAGUCUGACCCCCACA [hsa-mir-6785]	1.64	-0.814	1.01	1.05	1.86
UGGUGGGGGCCGGGGCAGGCCCAGCGAAA [hsa-mir-648]	2.27	1.1	1.37	1.96	1.94
